The record followed here is PMC12363161.

In this experiment the target is SDDV major capsid protein, Flag-tagged (pFlag-N3-SDDV MCP) (scale drop disease virus (SDDV)).

B1: TM-B polypeptide containing the binding site with SDDV-MCP in mfTfR1 (peptide)
peptide: ADLFRNQFALATWTIQGCANSLAGDIWSL
For the molecule B1, the mortality of mandarin fish challenged with SDDV pre-incubated with TM-B, against the petB2M control (blocks m2 with m8) came out at 40%.
